Test results reported in paper PMC5059767.

Assays:
[1] = molecular target: endogenous PKAC (HEK293T) (human (endogenous in HEK293T)) (UniProt P17612)
[2] = molecular target: mCherry-ARHGAP36; assay: FLIM-FRET (Venus-YFP donor fluorescence lifetime) in MDCK cells; conditions: n≥4 each; mean±s.d.; donor alone (PKAC-YFP) est. 3.0 ns; parent: est. 2.4; read off a plot
[3] = molecular target: PKAC-YFP (mouse PKAC-Venus-YFP), in MDCK cells (UniProt P05132); assay: as above; conditions: n≥4 each; mean±s.d.; donor alone (PKAC-YFP) est. 3.0 ns; parent: est. 2.4; read off a plot

Chain of ARHGAP36-N2 (118–194) (Q6ZRI8 149-225): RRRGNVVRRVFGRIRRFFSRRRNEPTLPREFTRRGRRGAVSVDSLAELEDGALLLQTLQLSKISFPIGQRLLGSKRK

reduction in mean FRET emission ratio of the PKA biosensor AKAR4-NES in HEK293T cells stimulated with Forskolin and IBMX [1]	Substance	also measured
25.1%	ARHGAP36-N2 (118–194) (from UniProt Q6ZRI8-2 118-194) (domain or fragment)	–
–	PKAC-YFP (mouse PKAC-Venus-YFP), in MDCK cells (from UniProt P05132) E127A; E170A; E230A	response [2]: 3 ns
25.7%	mCherry-ARHGAP36 (natural protein)	–
–	mCherry-ARHGAP36 R153D; R154D; V157D	response [3]: 3 ns
